These results are taken from patent US20190241668A1 (ARGENX, published 2019).

Changes are numbered by the printed parent chain.

Sequences and labels used below:
B1: Fab clone 2A2 (Fab, V domains shown)
VH: EVQVQESGGGLVQPGGSLRLSCAASGFTFSSYAMSWVRQAPGKGLEWVSDINSGGGSTVYTDSVKGRFTISRDNAKNTLYLQMNSLKPDDTAVYYCATGGSYYSYRLFDYWGQGTQVTVSS
VL: DIQMTQSPSSVIVSAGEKVTINCKSSQSVLDSSNQKNYLAWYQQRLGQSPRLLIYWASTRESGVPDRFSGSGSTTDFTLTISSFQPEDAAVYYCQQGYSVPVTFGQGTKVELKR
notes: Llama-derived Fab from an immune library; the constant domains of the Fab are not
B2: Fab clone 2E7 (Fab, V domains shown)
VH: ELQVVESGGGLVQPGGSLRLSCAASGFTFGSYDMSWHRQAPRKGPEWVSTISAGGGRTYYADSVKGRFTISRDNAKNTLYLQMNSLKPEDTAVYFCTKIVLDSWGQGTQVTVSS
VL: DVVLTQTPGSLSVVPGESASISCKASQSLIHIDGKTYLYWLLQKPGRRPELLIYQVSNHESGVPDRFTGSGSGTDFTLKISGVKAEDAGVYYCAQATYYPSFGSGTRLEIK
notes: as for B1
B3: Fab clone 2F8 (Fab, V domains shown)
VH: B2 VH with L2V, V4L, H37V, R42G, G66D, F95Y, T97A, I99V, L101I, S103Y
VL: B2 VL with I30V, I32T, L38V, R47Q, E50H
notes: as for B1
B4: Fab clone 2C6 (Fab, V domains shown)
VH: QVQLVESGGGLVQPGGSLRLSCAASGFAFSSYDMSWVRQAPGKGPEWVSTINSGGGSTSYADSVKGRFTISRDNAKNTVYLQMNSLKPEDTAVYYCAARSLYYTRVPMYDYWGQGTQVTVSK
VL: QAVVTQEPSLSVSPGGTVTLTCGLSSGSVTTNNYPGWFQQTPGQAPRTLIYSTSSRHSGVPSRFSGSISGNKAALTITGAQPEDEADYYCALDIGSYTAVFGGGTHLTVL
notes: as for B1
B5: Fab clone 2B6 (Fab, V domains shown)
VH: B4 VH with P45L, S59N, V64M, L101P, M108L, K122S
VL: QAVVTQEPSLSVSLGGTVTLTCGLRSGSVTTSNYPGWFKQTPGQAPRTLIFGASSRHSGVPSRYSGSISGNKAALTITGAEPEDEADYYCALNKGTYTDVFGGGTKLTVL
notes: as for B1
B6: Fab clone 2B10 (Fab, V domains shown)
VH: QVQLQESGPGLVKPSQTLSLTCTVSGGSITTNRYLWTWIRQTPGKGLEWVGAIAYSGRTYYSPSLKSRTSISRDTSKNQFTLQLSSVTPEDTGVYYCAHFTGWGGYYWGQGTQVTVSS
VL: QSALTQPPSVSGTLGKTVTISCAGTSSDIGGYNSVSWYQQLPGTAPKLLIYEVNKRASGIPDRFSGSKSGNTASLSISGLQSEDEADYYCASYRSANNVVFGGGTKLTVL
notes: Llama-derived Fab from an immune library; the constant domains of the Fab are not; also called 2610; 21310
B7: Fab clone 2D6 (Fab, V domains shown)
VH: QVQLQESGGGLVQPGGSLTLSCAASGFFFSSYAMSWVRQAPGKGLEWVSSISAGGGTSYYADSVKGRFTISRDSAKNTLVLQMNSLKPEDTAVYYCAKKRQNFWSEGYDSWGQGTQVTVSS
VL: HSAVTQPPSVSGSPGKAVTISCVGSSSDVGYGDYVSWYQQLPGMAPKLLIYDVEKRASGIPDRFSGSKSGNTASLTISGLQSEDEADYYCASYRSDSNFVFGGGTHLAVL
notes: as for B1
B8: Fab clone 1A11 (Fab, V domains shown)
VH: EVQLVESGGGLVQPGGSLRLSCAASGFTFSSYAMSWVRQAPGKGPEWVSHINSGGGNTKYADSVKGRFTISRDNAKNTLYLQMNTLKPEDTAVYYCAKDVSGGYYGTYALDAWGQGTQVVVSS
VL: SYELTQSPSVSVALKQTAKITCGGDNIGSKSAQWYQQKPGQAPVLVIYADSRRPSGIPERFSGSNSGNTATLTISGAQAEDEADYYCQVWDSSAAVFGGGTHLTVL
notes: as for B1
B9: Fab clone 2G6 (Fab, V domains shown)
VH: EVQLVESGGGLVQPGGSLRLSCAASGFTFSSYSMSWVRQAPGKGPEWVSGINTSGGTTSYAASVKGRFTVSRDNAKNTLSLQMNSLEPEDTAVYYCVKHIRWSGSNYYYYGMDYWGKGTLVTVSS
VL: QAVLTQPPSVSGSPGQRFTISCTGSNRNIGNNYVNWYQQLPGTAPKLLIYSDNLRTSGVPARFSASKSGTTSSLTISGLQAEDEAVYYCSSWDDSLSGAVFGGGTHLTVL
notes: as for B1
B10: Fab clone 2A6 (Fab, V domains shown)
VH: QVQLVESGGGLVQPGGSLRLSCAASGFTFSNYWMYWVRQAPGKGLEWVSTINTNGAITLYADNVKDRFTVSRDNAKNTLYLQMNSLKSEDTAVYYCAKVKLSGYPHPYYAMDYWGKGTLVTVSS
VL: NFMLTQPPSLSGSLGQSARLTCTLGSGNSIGAHTISWYQQKAGSPPRYLLNYYSDSSNHQASGVPSRFSGSKDDSTNAGLLLISGLQPEDEADYYCAAGDGSGTVFGGGTKLTVL
notes: as for B1
B11: Fab clone 2B9 (Fab, V domains shown)
VH: EVQLQESGPGLVKPSQTLSLTCTVSGASVTTRYNYWSWIRQPPGKGLEWMGAITYSGSTYYSPSLKSRTSISRDTSKNQFTLQLSSVTPEDTAVYYCATEGSSSTGVSRYSFGSWGQGTQVTVSS
VL: ATMLTQSPGSLSVVPGESASISCKASQSLTHTDGTTALYWLQQKPGQRPQLLIYEVSVRASGVPDRFTGSGSGSDFTLKINGVKAEDAGVYYCAQVAYYPTFGQGTKVELK
notes: as for B1
B12: Fab clone 2E9 (Fab, V domains shown)
VH: EVQLVESGGGLVQPGGSLRLSCAASGFTFDDYTMSWVRQVPGKGLEWISGISGNGGRTDYVEPIEGRFTISRDNAKNTLYLQMNSLKSEDTAVYYCAKTSPQSLDYWGQGTQVTVSS
VL: DIVMTQSPSSVTASVGEKVTINCKSSQSVVSGSNQKSYLNWYQQRPGQPPRLLIYYASTQESGIPDRFSGSGSTTDFTLTISSVQPEDAAVYYCQQAYSAPYNFGSGTRLEIK
notes: as for B1
B13: Fab clone 2A9 (Fab, V domains shown)
VH: QVQLVESGPGLVKPSQTLSLTCTVSGGSITTSDDAWSWIRQPAGKGLEWMGVIAYDGSTRYSPSLQSRTSISRDTSKNQFSLQLSSVTPEDTAVYYCARTKGVGGTWALDAWGQGTLVTVSS
VL: EIVLTQSPSSVTASVGEKVTINCKSSQSVLSSSNQKNYLSWYQQRLGQSPRLLITWASTRESGVPDRFSGSGSTTDFTLTISSFQPEDAAVYYCQQGYGAPLTFGQGTKVELKR
notes: as for B1
B14: Fab clone 2E2 (Fab, V domains shown)
VH: QLQLVESGGGLVQPGGSLRLSCAASGFTFGSYDMSWVRQAPGKGPEWVSRITSGGGSTYADSVKGRFTISRDNAKNTLSLQMNSLKSEDTAVYYCAAGQYSDGYYPYDYWGQGTQVTVSS
VL: DIVMTQSPSSLSASLGDRVTITCQASQSISSYLAWYQQKPGQGPKLLIYGASRLEPGVPSRFSGSGSGTSFTLTISGVEAEDLATYYCLQDYSWPYSFGSGTRLEIK
notes: as for B1

The first assay concerns the target T1, TIM-3 (T cell immunoglobulin and mucin-domain containing-3) (human, UniProt Q8TDQ0 22-200, limits assumed).
T1 construct: also called TIMD-3; HAVCR2
T1 sequence (looked up): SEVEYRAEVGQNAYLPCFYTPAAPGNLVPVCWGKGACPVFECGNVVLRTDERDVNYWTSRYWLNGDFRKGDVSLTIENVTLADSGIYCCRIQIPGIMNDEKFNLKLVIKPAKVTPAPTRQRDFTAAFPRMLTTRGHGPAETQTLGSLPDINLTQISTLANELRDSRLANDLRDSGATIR
As to the kind of experiment: Biacore, Fab on TIM-3. For orientation: In SPR one partner is held on a chip, and binding of the other changes the refractive index at the surface.
Regarding B1, the koff (commonly the first-order rate constant of dissociation) was 4.41e-05 s⁻¹.

B2 registered a koff of 7.62e-05 s⁻¹.

Molecule B3 had a koff of 8.53e-05 s⁻¹.

On to B4, for which the koff worked out at 1.04e-05 s⁻¹.

With B5, the koff amounted to 3.64e-05 s⁻¹.

B6 returned a koff of 1.85e-05 s⁻¹.

For the molecule B7, the koff amounted to 0.000166 s⁻¹.

As for B8, the koff was 2.48e-05 s⁻¹.

Turning to B9, the off-rate (koff) is 3.72e-05 s⁻¹.

B10 came in with a koff of 0.000151 s⁻¹.

The molecule B11 yielded a dissociation rate constant (koff) of 4.87e-05 s⁻¹.

In the case of B12, the koff is 6.64e-05 s⁻¹.

The next assay deals with T1, TIM-3 (T cell immunoglobulin and …). In words: ELISA, Fab on TIM-3. In general terms: In an ELISA, binding on a coated surface is turned into a signal by an enzyme label.
In the case of B13, a half-maximal response (EC50) required 0.0114 µg/mL.

B1: the EC50 (commonly the concentration at which the effect is half-maximal) was 0.00805 µg/mL.

The molecule B2 had a concentration for a half-maximal effect (EC50) of 0.0133 µg/mL.

Molecule B3 had an EC50 of 0.0181 µg/mL.

B4 displayed an EC50 of 0.00821 µg/mL.

In the case of B5, the midpoint of the response, the EC50, lay at 0.00852 µg/mL.

For the molecule B6, the response was half-maximal at 0.014 µg/mL (EC50).

Turning to B7, the 50% effective concentration (EC50) was 0.00717 µg/mL.

B14 gave an EC50 of 0.121 µg/mL.

B8 gave an EC50 of 0.01 µg/mL.

As to B9, the EC50 was found to be 0.0133 µg/mL.

Turning to B10, the EC50 came to 0.0104 µg/mL.

In turn, B11 yielded an EC50 of 0.00851 µg/mL.

Molecule B12 displayed an EC50 of 0.0149 µg/mL.
